Source: doi:10.1101/2023.06.20.545791 (bioRxiv, 2023)
Ends that are not written are not given here.

T1: IRE1α lumenal domain (IRE1αLD) (human, UniProt O75460 24-443)
T1 sequence: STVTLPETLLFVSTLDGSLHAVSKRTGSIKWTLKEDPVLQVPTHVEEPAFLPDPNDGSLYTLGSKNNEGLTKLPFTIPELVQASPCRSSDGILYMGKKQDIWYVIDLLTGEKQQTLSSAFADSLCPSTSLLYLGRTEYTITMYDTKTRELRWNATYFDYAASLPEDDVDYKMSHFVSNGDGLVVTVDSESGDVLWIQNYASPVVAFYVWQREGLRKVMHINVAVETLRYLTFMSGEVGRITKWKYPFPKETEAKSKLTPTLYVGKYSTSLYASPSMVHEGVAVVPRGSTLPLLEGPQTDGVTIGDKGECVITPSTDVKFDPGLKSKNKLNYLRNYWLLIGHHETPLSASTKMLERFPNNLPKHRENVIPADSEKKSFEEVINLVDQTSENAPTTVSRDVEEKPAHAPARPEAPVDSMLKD


Tests used:
[1] = target: T1, IRE1α lumenal domain (IRE1αLD); assay: […]
[2] = target: T1, IRE1α lumenal domain (IRE1αLD); assay: […]; remark: listed apart in the source
[3] = target: T1, IRE1α lumenal domain (IRE1αLD); assay: fluorescence polarisation

| Binder | binding result [1] | also measured |
| --- | --- | --- |
| IYGWYRVHF [CTxA1_(I124-F132) peptide] | binds | – |
| IYGWYRVHFGVLDEQLHR [CTxA1_(I124-R141) peptide] | – | Kd [1]: 44 ± 5 µM |
| YWLLIGHHETPL (not fully specified (N-terminus)) [IRE1α_(Y358-L369) peptide] | – | Ki [2]: 220 ± 30 µM; Kd [3]: 190 ± 20 µM |
| IYGWYRVNF [heat-labile enterotoxin (LTx) peptide 124-132] | binds | – |
| IHFYSKWYIR [SARS-CoV2 ORF8 peptide 39-48] | binds | – |
